In publication PMC8932645 one finds Kd and percent of SHH transferred from GAS1 to an equimolar amount of PTCH1 data, which are given here for four molecules.

No end group written: not given here. *: point of attachment. Palmitoyl = CCCCCCCCCCCCCCCC(=O)* A value given as a limit tells only on which side of the number the result lay.

For orientation: Kd means a measure of binding affinity in units of concentration.

Experiment [1] concerns the target GAS1 ectodomain (GAS1-Ecto), FLAG-HaloTag7-tagged (human) (UniProt P54826). Nature of the experiment: ITC. Background: ITC needs no label: the signal is the heat of the interaction.
UniProt P54826, sequence (P54826 40-317): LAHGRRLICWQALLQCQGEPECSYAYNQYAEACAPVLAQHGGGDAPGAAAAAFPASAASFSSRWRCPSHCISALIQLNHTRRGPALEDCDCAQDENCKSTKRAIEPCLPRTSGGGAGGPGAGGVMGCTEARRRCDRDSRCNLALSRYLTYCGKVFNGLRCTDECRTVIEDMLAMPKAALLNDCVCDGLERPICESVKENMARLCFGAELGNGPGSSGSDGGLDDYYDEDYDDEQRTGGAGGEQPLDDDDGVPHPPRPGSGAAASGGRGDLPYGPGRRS
For experiment [2], the target named is Xenopus laevis PTCH1 (residues 1–1178) (Xenopus laevis). Put plainly: native gel or EMSA.

Molecule “palmitoylated SHH effector peptide (EP, SHH residues 24–45)” returned a Kd in experiment [1] of 3.84 µM.

For the molecule octanoylated SHH effector peptide (EP), in experiment [1], the Kd was determined as 34.6 µM.

Regarding “dually lipidated Sonic hedgehog (SHH) (from UniProt Q15465 24-197) (ligand)”, in experiment [2], the percent of SHH transferred from GAS1 to an equimolar amount of PTCH1 was greater than 50%.

B1: truncated, palmitoylated SHH EP (9aa, residues 24–32) (peptide)
peptide: Palmitoyl-SGPGRGFGK
Regarding B1, the Kd in experiment [1] turned out to be 3.72 µM.
